Experimental data from US20050100554A1 (published 2005).

T1: Human Papillomavirus 1a E2 (Human Papillomavirus 1a, UniProt P03118 1-401)
T1 construct: also called HPV 1a E2; cbe_251917
T1 sequence: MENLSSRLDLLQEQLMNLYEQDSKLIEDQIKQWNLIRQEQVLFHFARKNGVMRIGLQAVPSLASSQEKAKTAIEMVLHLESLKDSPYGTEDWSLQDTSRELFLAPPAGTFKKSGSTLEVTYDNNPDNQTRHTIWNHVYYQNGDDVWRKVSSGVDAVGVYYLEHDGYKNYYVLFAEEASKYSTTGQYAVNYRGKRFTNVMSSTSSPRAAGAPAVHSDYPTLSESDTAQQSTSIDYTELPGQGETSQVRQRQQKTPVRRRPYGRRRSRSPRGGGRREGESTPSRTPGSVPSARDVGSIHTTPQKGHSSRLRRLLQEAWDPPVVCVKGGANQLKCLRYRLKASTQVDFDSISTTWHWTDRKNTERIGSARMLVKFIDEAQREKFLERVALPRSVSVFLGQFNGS

T2: gbh_al121903 (human, UniProt Q9Y6D5 1145-1785)
T2 construct: also called cbe_3473488
T2 sequence: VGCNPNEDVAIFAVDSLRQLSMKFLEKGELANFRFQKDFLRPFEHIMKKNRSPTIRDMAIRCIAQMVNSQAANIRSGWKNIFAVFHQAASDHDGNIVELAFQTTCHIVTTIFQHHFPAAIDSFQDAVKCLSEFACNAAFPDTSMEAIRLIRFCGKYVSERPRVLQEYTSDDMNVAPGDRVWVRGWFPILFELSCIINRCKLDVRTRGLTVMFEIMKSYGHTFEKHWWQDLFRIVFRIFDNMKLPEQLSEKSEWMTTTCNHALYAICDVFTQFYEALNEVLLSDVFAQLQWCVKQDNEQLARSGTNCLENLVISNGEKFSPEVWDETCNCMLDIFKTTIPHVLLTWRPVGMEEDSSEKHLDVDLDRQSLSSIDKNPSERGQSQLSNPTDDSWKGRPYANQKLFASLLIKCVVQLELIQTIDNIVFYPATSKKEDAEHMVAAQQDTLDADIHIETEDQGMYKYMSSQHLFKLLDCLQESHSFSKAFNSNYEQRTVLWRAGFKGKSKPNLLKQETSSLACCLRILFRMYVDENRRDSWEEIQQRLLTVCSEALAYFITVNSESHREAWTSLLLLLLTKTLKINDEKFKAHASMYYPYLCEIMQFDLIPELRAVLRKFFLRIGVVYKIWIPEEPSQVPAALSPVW

T3: Human papillomavirus 16 L1 (Human papillomavirus 16, UniProt P03101 1-505)
T3 construct: also called HPV 16 L1; cbe_251784
T3 sequence: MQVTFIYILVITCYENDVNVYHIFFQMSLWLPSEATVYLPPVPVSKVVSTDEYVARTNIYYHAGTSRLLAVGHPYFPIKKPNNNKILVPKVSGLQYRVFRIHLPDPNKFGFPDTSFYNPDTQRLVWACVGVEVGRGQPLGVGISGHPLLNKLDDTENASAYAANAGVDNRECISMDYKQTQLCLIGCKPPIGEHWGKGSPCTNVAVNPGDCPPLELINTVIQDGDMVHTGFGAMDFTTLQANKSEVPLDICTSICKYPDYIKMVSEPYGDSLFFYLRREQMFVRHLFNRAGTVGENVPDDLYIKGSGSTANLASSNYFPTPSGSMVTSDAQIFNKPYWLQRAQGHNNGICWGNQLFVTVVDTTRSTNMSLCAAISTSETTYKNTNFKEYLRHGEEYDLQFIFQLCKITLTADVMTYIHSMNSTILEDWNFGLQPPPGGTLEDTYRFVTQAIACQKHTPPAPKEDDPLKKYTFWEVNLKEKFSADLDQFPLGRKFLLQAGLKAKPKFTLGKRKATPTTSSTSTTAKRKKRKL

B1: eukaryotic translation initiation factor 2B, subunit 2 beta, 39 kDa (other)
chain: MPGSAAKGSELSERIESFVETLKRGGGPRSSEEMARETLGLLRQIITDHRWSNAGELMELIRREGRRMTAAQPSETTVGNMVRRVLKIIREEYGRLHGRSDESDQQESLHKLLTSGGLNEDFSFHYAQLQSNIIEAINELLVELEGTMENIAAQALEHIHSNEVIMTIGFSRTVEAFLKEAARKRKFHVIVAECAPFCQGHEMAVNLSKAGIETTVMTDAAIFAVMSRVNKVIIGTKTILANGALRAVTGTHTLALAAKHHSTPLIVCAPMFKLSPQFPNEEDSFHKFVAPEEVLPFTEGDILEKVSVHCPVFDYVPPELITLFISNIGGNAPSYIYRLMSELYHPDDHVL
notes: also called EIF2B2; cbe_3625721
B2: Human papillomavirus 16 L2 (other)
chain: MRHKRSAKRTKRASATQLYKTCKQAGTCPPDIIPKVEGKTIAVQILQYGSMGVFFGGLGIGTGSGTGGRTGYIPLGTRPPTATDTLAPVRPPLTVDPVGPSDPSIVSLVEETSFIDAGAPTSVPSIPPDVSGFSITTSTDTTPAILDINNTVTTVTTHNNPTFTDPSVLQPPTPAETGGHFTLSSSTISTHNYEEIPMDTFIVSTNPNTVTSSTPIPGSRPVARLGLYSRTTQQVKVVDPAFVTTPTKLITYDNPAYEGIDVDNTLYFSSNDNSINIAPDPDFLDIVALHRPALTSRRTGIRYSRIGNKQTLRTRSGKSIGAKVHYYYDLSTIDPAEEIELQTITPSTYTTTSHAASPTSINNGLYDIYADDFITDTSTTPVPSVPSTSLSGYIPANTTIPFGGAYNIPLVSGPDIPINITDQAPSLIPIVPGSPQYTIIADAGDFYLHPSYYMLRKRRKRLPYFFSDVSLAA
notes: also called HPV 16 L2; cbe_251737
B3: KIAA0276 (other)
chain: MHSDAAAVNFQLNSHLSTLANIHKIYHTLNKLNLTEDIGQDDHQTGSLRSCSSSDCFNKVMPPRKKRRPASGDDLSAKKSRHDSMYRKYDSTRIKTEEEAFSSKRCLEWFYEYAGTDDVVGPEGMEKFCEDIGVEPENVVMLVLAWKLDAQNMGYFTLQEWLKGMTSLQCDTTEKLRNTLDYLRSFLNDSTNFKLIYRYAFDFAREKDQRSLDINTAKCMLGLLLGKIWPLFPVFHQFLEQSKYKVINKDQWCNVLEFSRTINLDLSNYDEDGAWPVLLDEFVEWYKDKQMS
notes: also called cbe_4270335
B4: Prey2777 (other)
chain: MNPVPHWGEVFLLVGGEGEHLASQGTTPARDHRVGISPASQQAQPESWRRRQRDKGVDPEKAPSLTRQSQNPPSLTAPLGMPSACSCLPCGPAPEAAIILAGPPTALTVLPKGTGLKKSKRLLLESLMRRRIAHLKWGLPRRILESYFLFNFLGSCSLTLAGARLSGLNTGQELQAQQERYCEAQGSPPGLKSPERFQRVQRPDRKSSKLPIQARALERNRPHMSEPIKHFHPA
notes: also called FLJ23584; hypothetical protein FLJ23584
B5: low molecular mass ubiquinone-binding protein (9.5 kD) (other)
chain: MGREFGNLTRMRHVISYSLSPFEQRAYPHVFTKGIPNVLRRIRESFFRVVPQFVVFYLIYTWGTEEFERSKRRIQLPMKMTNEQRIRMTVPCL
notes: also called QP-C; cbe_1710
B6: hypothetical protein MGC3222 (other)
chain: VVSPDSIHSVAPENEGRLVHIIGALRTSKLLSDPNYGVHLPAVKLRRHVEMYQWVETEESREYTEDGQVKKETRYSYNTEWRSEIINSKNFDREIGHNNPSAMAVESFTATAPFVQIGRFFLSSGLIDKVDNFKSLSLSKLEDPHVDIIRRGDFFYHSENPKYPEVGDLRVSFSYAGLSGDDPDLGPAHVVTVIARQRGDQLVPFSTKSGDTLLLLHHGDFSAEVSAVPYSYGGGTSMSFLPSSGYLIRSHYQGS
notes: also called cbe_3583511
B7: HCDI protein (other)
chain: MGWRRKRVPQRGRKAPPPQLHGNINNLYFPIRWRDRLHWDSPNPAAECQRHEVTLVSRKPGPGRITWDELAASGLPSCDAAVNLAGENILNPLRRWNETFQKEVLGSRLETTQLLAKAITKAPQPPKAWVLVTGVAYYQPSLTAEYDEDSPGGDFDFFSNLVTKWEAAARLPGDSTRQVVVRSGVVLGRGGGAMGHMLLPFRLGLGGPIGSGHQFFPWIHIGDLAGILTHALEANHVHGVLNGVAPSSATNAEFAQTLGAALGRRAFIPLPSAVVQAVFGRQRAIMLLEGQKVIPQRTLATGYQYSFPELGAALKEIVA
notes: also called cbe_1505425
B8: crystallin, alpha B (other)
chain: MDIAIHHPWIRRPFFPFHSPSRLFDQFFGEHLLESDLFPTSTSLSPFYLRPPSFLRAPSWFDTGLSEMRLEKDRFSVNLDVKHFSPEELKVKVLGDVIEVHGKHEERQDEHGFISREFHRKYRIPADVDPLTITSSLSSDGVLTVNGPRKQVSGPERTIPITREEKPAVTAAPKK
notes: also called CRYAB; cbe_4281271
B9: Rab coupling protein (other)
chain: MSLMVSAGRGLGAVWSPTHVQVTVLQARGLRAKGPGGTSDAYAVIQVGKEKYATSVSERSLGAPVWREEATFELPSLLSSGPAAAATLQLTVLHRALLGLDKFLGRAEVDLRDLHRDQGRRKTQWYKLKSKPGKKDKERGEIEVDIQFMRNNMTASMFDLSMKDKSRNPFGKLKDKIKGKNKDSGSDTASAIIPSTTPSVDSDDESVVKDKKKKSKIKTLLSKSNLQKTPLSQSMSVLPTSKPEKVLLRPGDFQSQWDEDDNEDESSSASDVMSHKRTASTDLKQLNQVNFTLPKKEGLSFLGGLRSKNDVLSRSNVCINGNHVYLEQPQPTGEIKDSSPSSSPSPKGFRKKTLFSSTENLAAGSWKEPAEGGGLSTDRDVSESSTKDSLKSMTLPTYRPAPLISGDLREKMAPANSEATKEAKESKKPESRRSSLLSLMTGKKDVAKGSEGENLLTVPGREKEGMLMGVKPGEDASGPAEDLVRRSEKDTAAVVSRQGSSLNLFEDVQITEPEAEPESKSEPRPPISSPRAPQTRAVKPRLHPVKPMNATATKVANCSLGTATIISENLNNEVMMKKYSPSDPAFAYAQLTHDELIQLVLKQKETISKKEFQVRELEDYIDNLLVRVMEETPNILRIPTQVGKKAGKM
notes: also called Hs.30289; RCP
B10: chemokine-like factor 1 (other)
chain: MDNVQPKIKHRPFCFSVKGHVKMLRLALTVTSMTFFIIAQAPEPYIVITGFEVTVILFFILLYVLRLDRLMKWLFWPLLDIINSLVTTVFMLIVSVLALIPETTTLTVGGGVFALVTAVCCLADGALIYRKLLFNPSGPYQKKPVHEKKEVL
notes: also called HSPC224; CKLF1

How the values were obtained:
[1] = biological target: T1, Human Papillomavirus 1a E2; experiment: Y2H; INT ID 416
[2] = biological target: T4, signal-induced proliferation-associated 1 like 1 (human, UniProt O43166 1-1804); experiment: Y2H; INT ID 184
T4 construct: also called KIAA0440; cbe_3056756

gbh_al121903 = biological target: T2, gbh_al121903; experiment: Y2H; INT ID 185
KIAA1389 protein = biological target: T5, KIAA1389 protein (human, UniProt Q9P2F8 219-1722); experiment: Y2H; INT ID 187
T5 construct: also called cbe_3663966

[3] = biological target: B2; experiment: Y2H; INT ID 191
[4] = biological target: T1, Human Papillomavirus 1a E2; experiment: Y2H; INT ID 410
[5] = biological target: T1, Human Papillomavirus 1a E2; experiment: Y2H; INT ID 383
[6] = biological target: T1, Human Papillomavirus 1a E2; experiment: Y2H; INT ID 415
[7] = biological target: T3, Human papillomavirus 16 L1; experiment: Y2H; INT ID 196
[8] = biological target: T3, Human papillomavirus 16 L1; experiment: Y2H; INT ID 197
[9] = biological target: B2; experiment: Y2H; INT ID 189
[10] = biological target: B2; experiment: Y2H; INT ID 188

T5 sequence (Q9P2F8 other isoform, or with tags, fused parts or gaps limits assumed): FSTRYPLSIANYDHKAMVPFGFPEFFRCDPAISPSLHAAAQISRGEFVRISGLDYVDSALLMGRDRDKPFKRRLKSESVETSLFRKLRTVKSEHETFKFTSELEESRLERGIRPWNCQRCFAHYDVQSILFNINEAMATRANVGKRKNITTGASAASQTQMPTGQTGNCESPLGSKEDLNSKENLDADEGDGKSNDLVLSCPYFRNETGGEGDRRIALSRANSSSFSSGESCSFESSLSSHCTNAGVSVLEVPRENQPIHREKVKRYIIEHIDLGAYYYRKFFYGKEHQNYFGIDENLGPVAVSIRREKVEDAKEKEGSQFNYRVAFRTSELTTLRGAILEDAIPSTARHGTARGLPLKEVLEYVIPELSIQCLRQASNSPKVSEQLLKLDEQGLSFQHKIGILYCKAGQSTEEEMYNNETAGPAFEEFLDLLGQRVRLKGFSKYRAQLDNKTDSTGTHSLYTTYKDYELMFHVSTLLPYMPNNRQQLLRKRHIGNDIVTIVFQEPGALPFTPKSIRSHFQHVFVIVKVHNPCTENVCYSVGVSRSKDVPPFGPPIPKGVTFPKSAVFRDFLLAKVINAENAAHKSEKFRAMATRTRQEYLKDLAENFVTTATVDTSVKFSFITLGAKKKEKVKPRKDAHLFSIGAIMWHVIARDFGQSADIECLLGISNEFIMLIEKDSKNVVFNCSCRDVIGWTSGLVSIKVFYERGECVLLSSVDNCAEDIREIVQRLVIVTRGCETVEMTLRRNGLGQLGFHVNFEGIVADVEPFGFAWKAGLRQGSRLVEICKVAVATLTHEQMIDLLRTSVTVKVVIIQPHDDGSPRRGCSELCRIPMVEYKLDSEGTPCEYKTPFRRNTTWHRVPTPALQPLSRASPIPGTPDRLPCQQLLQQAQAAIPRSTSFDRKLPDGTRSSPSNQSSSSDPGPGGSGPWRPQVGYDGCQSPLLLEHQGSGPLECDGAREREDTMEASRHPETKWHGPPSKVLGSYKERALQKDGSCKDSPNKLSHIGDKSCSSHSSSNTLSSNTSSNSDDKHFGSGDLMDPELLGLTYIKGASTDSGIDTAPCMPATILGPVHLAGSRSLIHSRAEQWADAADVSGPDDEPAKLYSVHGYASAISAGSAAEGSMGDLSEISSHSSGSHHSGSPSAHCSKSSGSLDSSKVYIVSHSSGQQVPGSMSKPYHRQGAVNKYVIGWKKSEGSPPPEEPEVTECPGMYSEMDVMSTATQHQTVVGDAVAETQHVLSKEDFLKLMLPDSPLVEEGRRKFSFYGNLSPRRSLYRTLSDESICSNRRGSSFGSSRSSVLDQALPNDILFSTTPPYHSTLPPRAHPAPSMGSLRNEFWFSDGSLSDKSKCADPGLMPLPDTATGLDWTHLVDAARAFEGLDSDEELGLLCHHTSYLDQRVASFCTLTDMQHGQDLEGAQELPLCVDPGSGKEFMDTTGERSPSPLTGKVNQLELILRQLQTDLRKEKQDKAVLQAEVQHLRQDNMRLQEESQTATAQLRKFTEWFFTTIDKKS
T4 sequence (O43166 whole entry): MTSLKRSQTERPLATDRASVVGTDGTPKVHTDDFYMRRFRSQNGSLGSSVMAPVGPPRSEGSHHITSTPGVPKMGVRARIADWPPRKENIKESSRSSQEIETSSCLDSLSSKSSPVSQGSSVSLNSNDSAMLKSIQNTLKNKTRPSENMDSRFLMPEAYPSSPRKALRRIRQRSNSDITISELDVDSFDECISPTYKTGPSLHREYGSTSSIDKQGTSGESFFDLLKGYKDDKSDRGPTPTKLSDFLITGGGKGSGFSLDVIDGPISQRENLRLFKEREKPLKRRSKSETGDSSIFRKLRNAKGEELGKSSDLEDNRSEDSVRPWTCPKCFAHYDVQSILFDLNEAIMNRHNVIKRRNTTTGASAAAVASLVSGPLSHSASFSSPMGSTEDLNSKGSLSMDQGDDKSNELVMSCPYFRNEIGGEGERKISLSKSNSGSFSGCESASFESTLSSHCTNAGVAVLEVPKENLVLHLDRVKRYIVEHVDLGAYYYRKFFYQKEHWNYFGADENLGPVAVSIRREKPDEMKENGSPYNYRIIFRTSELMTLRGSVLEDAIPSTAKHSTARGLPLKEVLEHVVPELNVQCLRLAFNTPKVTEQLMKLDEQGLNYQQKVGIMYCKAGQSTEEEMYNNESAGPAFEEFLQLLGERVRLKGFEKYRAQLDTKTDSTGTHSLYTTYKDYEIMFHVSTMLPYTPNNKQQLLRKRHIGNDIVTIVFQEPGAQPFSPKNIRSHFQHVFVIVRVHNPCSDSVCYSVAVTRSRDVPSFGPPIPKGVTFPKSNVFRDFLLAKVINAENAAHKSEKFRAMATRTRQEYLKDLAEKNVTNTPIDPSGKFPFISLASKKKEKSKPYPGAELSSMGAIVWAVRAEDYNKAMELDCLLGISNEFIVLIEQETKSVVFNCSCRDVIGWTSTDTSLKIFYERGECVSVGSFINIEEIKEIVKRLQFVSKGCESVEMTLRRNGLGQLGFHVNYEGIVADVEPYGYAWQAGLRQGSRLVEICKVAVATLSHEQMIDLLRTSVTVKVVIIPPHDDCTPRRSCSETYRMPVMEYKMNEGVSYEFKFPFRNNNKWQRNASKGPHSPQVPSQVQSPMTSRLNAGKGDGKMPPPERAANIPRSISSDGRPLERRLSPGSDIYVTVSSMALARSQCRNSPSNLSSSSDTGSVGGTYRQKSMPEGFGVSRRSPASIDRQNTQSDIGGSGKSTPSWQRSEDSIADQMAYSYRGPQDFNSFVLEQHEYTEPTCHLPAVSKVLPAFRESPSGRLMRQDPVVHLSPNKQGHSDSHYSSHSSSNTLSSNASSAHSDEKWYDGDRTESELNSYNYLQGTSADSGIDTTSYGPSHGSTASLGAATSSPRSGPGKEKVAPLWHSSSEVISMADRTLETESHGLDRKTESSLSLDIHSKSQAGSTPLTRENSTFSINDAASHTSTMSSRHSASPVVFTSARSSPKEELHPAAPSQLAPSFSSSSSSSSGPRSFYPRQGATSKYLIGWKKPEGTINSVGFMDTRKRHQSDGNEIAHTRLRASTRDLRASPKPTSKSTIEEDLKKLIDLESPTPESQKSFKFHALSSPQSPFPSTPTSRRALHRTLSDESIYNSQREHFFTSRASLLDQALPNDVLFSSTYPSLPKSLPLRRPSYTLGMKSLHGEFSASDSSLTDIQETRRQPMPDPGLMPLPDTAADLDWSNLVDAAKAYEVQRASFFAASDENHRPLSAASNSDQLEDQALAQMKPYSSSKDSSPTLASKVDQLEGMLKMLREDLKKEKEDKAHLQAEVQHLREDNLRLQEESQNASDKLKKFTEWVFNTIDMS

Binder: B1
- binding result [1]: binds

Binder: B2
- binding result [2]: binds
- binding result (gbh_al121903): binds
- binding result (KIAA1389 protein): binds

Binder: B3
- binding result [3]: binds

Binder: B4
- binding result [4]: binds

Binder: B5
- binding result [5]: binds

Binder: B6
- binding result [6]: binds

Binder: B7
- binding result [7]: binds

Binder: B8
- binding result [8]: binds

Binder: B9
- binding result [9]: binds

Binder: B10
- binding result [10]: binds
